The experiment has as its target Histidine-tagged rat N-WASP (rat, UniProt O08816 1-501). Briefly: pull-down.

Sequence of Histidine-tagged rat N-WASP (O08816 whole entry): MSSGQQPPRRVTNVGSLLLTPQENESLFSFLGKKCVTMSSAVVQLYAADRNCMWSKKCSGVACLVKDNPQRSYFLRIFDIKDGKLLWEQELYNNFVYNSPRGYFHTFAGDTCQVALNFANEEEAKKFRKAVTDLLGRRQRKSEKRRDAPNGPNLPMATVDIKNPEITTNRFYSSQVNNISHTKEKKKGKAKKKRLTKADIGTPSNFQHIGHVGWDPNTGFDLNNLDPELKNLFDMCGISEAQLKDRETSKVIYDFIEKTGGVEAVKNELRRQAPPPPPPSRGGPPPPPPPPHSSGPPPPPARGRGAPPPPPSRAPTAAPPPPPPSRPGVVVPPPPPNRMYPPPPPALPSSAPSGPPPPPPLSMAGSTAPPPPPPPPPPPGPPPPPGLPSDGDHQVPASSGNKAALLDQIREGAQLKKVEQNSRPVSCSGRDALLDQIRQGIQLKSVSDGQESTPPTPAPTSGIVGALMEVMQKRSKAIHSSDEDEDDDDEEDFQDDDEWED

B1: Recombinant VirG-α1 protein (Thr53–Arg759 of VirG polypeptide) (domain or fragment, S. flexneri, UniProt Q7BCK4 53-759, looked up)
chain: TPLSGTQELHFSEDNYEKLLTPVDGLSPLGAGEDGMDAWYITSSNPSHASRTKLRINSDIMISAGHGGAGDNNDGNSCGGNGGDSITGSDLSIINQGMILGGSGGSGADHNGDGGEAVTGDNLFIINGEIISGGHGGDSYSDSDGGNGGDAVTGVNLPIINKGTISGGNGGNNYGEGDGGNGGDAITGSSLSVINKGTFAGGNGGAAYGYGYDGYGGNAITGDNLSVINNGAILGGNGGHWGDAINGSNMTIANSGYIISGKEDDGTQNVAGNAIHITGGNNSLILHEGSVITGDVQVNNSSILKIINNDYTGTTPTIEGDLCAGDCTTVSLSGNKFTVSGDVSFGENSSLNLAGISSLEASGNMSFGNNVKVEAIINNWAQKDYKLLSADKGITGFSVSNISIINPLLTTGAIDYTKSYISDQNKLIYGLSWNDTDGDSHGEFNLKENAELTVSTILADNLSHHNINSWDGKSLTKSGEGTLILAEKNTYSGFTNINAGILKMGTVEAMTRTAGVIVNKGATLNFSGMNQTVNTLLNSGTVLINNINAPFLPDPVIVTGNMTLEKNGHVILNNSSSNVGQTYVQKGNWHGKGGILSLGAVLGNDNSKTDRLEIAGHASGITYVAVTNEGGSGDKTLEGVQIISTDSSDKNAFIQKGRIVAGSYDYRLKQGTVSGLNTNKWYLTSQMDNQESKQMSNQESTQMSSRR
As to B1, the “fold change of coprecipitated amount with Cdc42-G12V (GTPγS) against without” value was 1.2 fold.
